Among the data in PMC11093223 (2024) are Kd values, retold here.

Some results are limits rather than exact numbers.

In assay [1] the target is TBC1D23 C-terminal domain (mouse, UniProt Q8K0F1 559-684). Briefly: ITC. Background: ITC needs no label: the signal is the heat of the interaction.
For assay [2], the target named is TBC1D23 C-terminal domain K672A (mouse, UniProt Q8K0F1 559-677, K672A). Briefly: ITC.
Chain of TBC1D23 C-terminal domain K672A (Q8K0F1 559-677 K672A): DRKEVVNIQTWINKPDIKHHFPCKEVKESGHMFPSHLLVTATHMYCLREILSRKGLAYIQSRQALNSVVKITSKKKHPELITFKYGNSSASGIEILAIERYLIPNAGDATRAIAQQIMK

Chain of TBC1D23 C-terminal domain (Q8K0F1 559-684): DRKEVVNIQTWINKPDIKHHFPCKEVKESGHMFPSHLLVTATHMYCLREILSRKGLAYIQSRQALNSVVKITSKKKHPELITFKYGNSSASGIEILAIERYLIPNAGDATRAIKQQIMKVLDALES

In general, Kd refers to the equilibrium constant for the complex coming apart. Read a low Kd as tighter binding. In the case of AANTLYHRGFTED [STX16 DD209-210AA], the Kd in assay [1] was more than 200 µM. In the case of DDNTLYHRGFTED [syntaxin-16 (209–221) peptide], in assay [2], the Kd came out at 27.5 µM.

In the case of DDNTLYHAGFTED [STX16 R216A], the Kd in assay [1] was found to be 10.3 µM.
